Assay [1] concerns the target drTLR5-ECD (zebrafish, Danio rerio). Description: fluorescence polarisation.
Assay [2] concerns the target TLR5-N14VLR (zebrafish, Danio rerio | hagfish) (UniProt B3DIN1). In words: fluorescence polarisation. For orientation: Fluorescence polarisation rises when a labelled molecule tumbles more slowly, as on binding a larger partner.

For the substance “CBLB502-ΔD0 (from UniProt Q06971 1-505) (ligand)”, the fold change in binding affinity (against CBLB502) in assay [1] and in assay [2] was 2 to 3 fold each time.

Values taken from publication PMC3406927.
